# From patent USRE48805 (VISION GLOBAL, dated 2021)
# B1: albumin-binding arginine deiminase (AAD) fusion protein His-ABD-PolyN-ADI (enzyme)
# chain: MHHHHHHDEAVDANSLAEAKVLANRELDKYGVSDYYKNLINNAKTVEGVKALIDEILAALPSGSNNNNNNGSGGSVFDSKFKGIHVYSEIGELESVLVHEPGREIDYITPARLDELLFSAILESHDARKEHKQFVAELKANDINVVELIDLVAETYDLASQEAKDKLIEEFLEDSEPVLSEEHKVVVRNFLKAKKTSRELVEIMMAGITKYDLGIEADHELIVDPMPNLYFTRDPFASVGNGVTIHYMRYKVRQRETLFSRFVFSNHPKLINTPWYYDPSLKLSIEGGDVFIYNNDTLVVGVSERTDLQTVTLLAKNIVANKECEFKRIVAINVPKWTNLMHLDTWLTMLDKDKFLYSPIANDVFKFWDYDLVNGGAEPQPVENGLPLEGLLQSIINKKPVLIPIAGEGASQMEIERETHFDGTNYLAIRPGVVIGYSRNEKTNAALEAAGIKVLPFHGNQLSLGMGNARCMSMPLSRKDVKW
# Molecular target: human serum albumin (HSA) (human, UniProt P02768 25-609)
# Sequence (P02768 25-609 limits assumed): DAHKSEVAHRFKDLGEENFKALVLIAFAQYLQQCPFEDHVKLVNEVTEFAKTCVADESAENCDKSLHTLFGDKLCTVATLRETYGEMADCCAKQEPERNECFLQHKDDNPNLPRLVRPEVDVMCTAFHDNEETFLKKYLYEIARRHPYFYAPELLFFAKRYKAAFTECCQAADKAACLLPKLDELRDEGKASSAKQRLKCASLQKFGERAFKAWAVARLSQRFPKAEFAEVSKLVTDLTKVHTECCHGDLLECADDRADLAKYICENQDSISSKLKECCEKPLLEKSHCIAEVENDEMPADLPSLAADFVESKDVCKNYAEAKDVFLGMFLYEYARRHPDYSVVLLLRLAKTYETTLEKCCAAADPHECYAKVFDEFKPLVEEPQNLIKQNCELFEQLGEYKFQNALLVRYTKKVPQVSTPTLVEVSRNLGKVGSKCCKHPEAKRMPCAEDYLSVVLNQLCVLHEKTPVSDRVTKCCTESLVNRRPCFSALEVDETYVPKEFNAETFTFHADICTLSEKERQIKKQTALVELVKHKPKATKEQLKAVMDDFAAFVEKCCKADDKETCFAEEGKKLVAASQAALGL
# Assay: native polyacrylamide gel (10%) shift after 60 min incubation at room temperature at the stated HSA:AAD molar ratios
binder,measurement,value
B1,binding result,binds
